Measurements reported in patent publication CN115028722A (BIOCELLS BEIJING BIOTECH CO LTD, dated 2022).

Key:
[1] = target: T1, 包含有His标签的重组人源TSLP蛋白(rhTSLP-His) (human); assay: ELISA, rhTSLP-His coated at 100 ng/well
T1 construct: also called rhTSLP-His重组蛋白; rhTSLP-His蛋白

[2] = target: T1, 包含有His标签的重组人源TSLP蛋白(rhTSLP-His); assay: cell ELISA: antibody blocks binding of 100 ng rhTSLP-His to hTSLPR/hIL-7Rα-293T/17 cells
[3] = target: T1, 包含有His标签的重组人源TSLP蛋白(rhTSLP-His); assay: ELISA as in Example 6, rhTSLP-His coated
[4] = target: T1, 包含有His标签的重组人源TSLP蛋白(rhTSLP-His); assay: cell ELISA: antibody blocks binding of rhTSLP-His to hTSLPR/hIL-7Rα-293T/17 cells

Row | Binder | EC50 [1] | IC50 [2] | EC50 [3] | IC50 [4]
1 | 抗TSLP人源化单克隆抗体M432-69H13L (antibody, human IgG2, lambda, V domains shown) VH: EVQLVQSGAEVKKPGATVKISCCASAYSFTTYWMHWVQQAPGKGLEWMGLIDPSDSETTLNQKFKDRVTLTVDKSTDTAYMELSSLRSEDTAVYYCARSLDGYFDYWGQGTTVTVSS VL: DIQLTQSPSSLSASVGDRVTITCRAGENIYSYLAWYQQKPGKAPKLLVYNAKILAEGVPSRFSGSGSGTDFTLTISSLQPEDFATYYCQHHYDTPWTFGGGTKLTVLG | – | – | 4.05 nM | 4.35 µg/mL
2 | 抗TSLP人源化单克隆抗体5F10-69H13L (antibody, human IgG2, lambda, V domains shown) VH: EVQLVQSGAEVKKPGATVKISCCASGYSFTSYWMHWVQQAPGKGLEWMGLIDPTDSEISLSQKFKDRVTLTVDKSTDTAYMELSSLRSEDTAVYYCARSLDGFFDQWGQGTTVTVSS VL: DIQLTQSPSSLSASVGDRVTITCRAGENIYSYLAWYQQKPGKAPKLLVYNAKILAEGVPSRFSGSGSGTDFTLTISSLQPEDFATYYCQHHYDTPWTFGGGTKLTVLG | – | – | 31.6 nM | 7.57 µg/mL
3 | 抗TSLP人源化单克隆抗体9F8-46H13L (antibody, human IgG2, lambda, V domains shown) VH: QVQLVQSGAEVKKPGASVKVSCCASGYSFTTYWMHWVRQAPGQGLEWMGIIDPSDSETTLNQKFKDRVTLTVDKSTSTAYMELSSLRSEDTAVYYCTRSLDGYFDYWGQGTTVTVSS VL: DIQLTQSPSSLSASVGDRVTITCRAGENIYSYLAWYQQKPGKAPKLLVYNAKILAEGVPSRFSGSGSGTDFTLTISSLQPEDFATYYCQHHYDTPWTFGGGTKLTVLG | – | – | 9.52 nM | 4.05 µg/mL
4 | 鼠源抗TSLP单克隆抗体5F10-2-25 (antibody, V domains shown, Mouse hybridoma monoclonal antibody) VH: ELQQSGPQLVRPGASVKISCKASGYSFTSYWMHWVKQRPGQGLEWIGLIDPTDSEISLSQKFKDKATLTVDKLSSTAHMQLSSPTSEDSAVYYCARSLDGFFDQWGQGTTVTV VL: DIDLTQSPASLSASVGETVTITCRTSENIYSYLAWYQQKQGKSPQLLVYNAKSLAEGVPSRFSGSGSGTQFSLKINSLQPEDFGSYYCQHHYDTPWTFGGGTKLENKT | 12.4 nM | 13.4 µg/mL | – | –
5 | Tezepelumab(安进和阿斯利康合作开发抗体) (antibody, V domains shown) VH: QMQLVESGGGVVQPGRSLRLSCAASGFTFRTYGMHWVRQAPGKGLEWVAVIWYDGSNKHYADSVKGRFTITRDNSKNTLNLQMNSLRAEDTAVYYCARAPQWELVHEAFDIWGQGTMVTVSS VL: SYVLTQPPSVSVAPGQTARITCGGNNLGSKSVHWYQQKPGQAPVLVVYDDSDRPSWIPERFSGSNSGNTATLTISRGEAGDEADYYCQVWDSSSDHVVFGGGTKLTVLG | 2.93 nM | 6.22 µg/mL | 1.8 nM | 8.93 µg/mL

The next lines start with the values.

Row | EC50 [1] | IC50 [2] | EC50 [3] | IC50 [4] | Binder
6 | 8.16 nM | 12 µg/mL | – | – | 鼠源抗TSLP单克隆抗体10D9-M-432 (antibody, V domains shown, Mouse hybridoma monoclonal antibody) VH: VNCKESGPQLVRPGASVKISCKASAYSFTTYWMHWVKQRPGQGLEWIGLIDPSDSETTLNQKFKDKATLTVDKSSSTAYMQLTSPTSEDSAVYYCARSLDGYFDYWGQGTTVTVSS VL: DIDLTQSPASLSASVGETVTITCRAGENIYSYLAWYQQKQGKSPQLLVYNAKILAESVPSRFSGSGSGTQFSLKINSLQPEDFGIYSCQHHYDTPWTFGGGTKLE
7 | 11.4 nM | 10.7 µg/mL | – | – | 鼠源抗TSLP单克隆抗体9F8-1-25 (antibody, V domains shown, Mouse hybridoma monoclonal antibody) VH: VQLQQSGPQLVRPGASVKISCKASGYSFTTYWMHWVKQRPGQGLEWIGIIDPSDSETTLNQKFKDKATLTVDKSSSTAYIQLSSPTSEDSAVYYCTRSLDGYFDYWGQGTTVTV VL: DIDLTQSPASLSASVGETVTITCRAGENIYSYLAWYQQKQGKSPQLLVYNAKILAESVPSRFSGSGSGTQFSLKINSLQPEDFGIYSCQHHYDTPWTFGGGTKLE
